Measurements: US7759459B2, “Fluorescent assays for protein kinases” (Albert Einstein College of Medicine of Yeshiva University, priority 2003, dated 2010)

Assays:
[1] = system: T1, N=C(N)NCCC[C@H](NC(=O)[C@H](CCCNC(=N)N)NC(=O)[C@H](CCCNC(=N)N)NC(=O)[C@H](CCCNC(=N)N)NC(=O)[C@H](Cc1ccccc1)NC(=O)[C@H](CO)Nc1ccc([N+](=O)[O-])c2nonc12)C(=O)N[C@@H](CCCCN)C(N)=O; assay: Fluorescent PKC assay (spectrofluorimetry); type: biochemical, human; details: other: PKCγ; Fluorescence; pH 7.4; 30.0 °C
T1 construct: purchased Panvera
Procedure: Fluorescent PKC assay-Fluorescence assays were performed in triplicate at 30° C. and initiated by addition of ATP to a 100 μL cuvette containing a 50 μL solution of PKC and peptide substrate 2. Final conditions: 62.5 mM HEPES pH 7.4, 3 mM MgCl2, 0.3 mM CaCl2, 0.1 mM EGTA, 1 mM DTT, 0.5 μg/mL phosphatidylserine, 0.1 μg/mL diacylglycerol, 1 mM ATP, and 13 nM PKC. After the addition of ATP, the solution was gently mixed and the time-dependent change in fluorescent intensity (excitation: 520 nm, emission: […]) continuously monitored with a Photon Technology QM-1 spectrofluorimeter.

[2] = system: T1, N=C(N)NCCC[C@H](NC(=O)[C@H](CCCNC(=N)N)NC(=O)[C@H](CCCNC(=N)N)NC(=O)[C@H](CCCNC(=N)N)NC(=O)[C@H](Cc1ccccc1)NC(=O)[C@H](CO)Nc1ccc([N+](=O)[O-])c2nonc12)C(=O)N[C@@H](CCCCN)C(N)=O; assay: Radioactive PKC assay ([γ-32P]ATP); type: biochemical, human; details: other: PKCγ, 30.0 °C
Procedure: Radioactive PKC Assay—Radioactive assays were performed in duplicate at 30° C. The final assay volume totaled 40 μl and contained 62.5 mM HEPES (pH 7.4), 0.75 mM CaCl2, 12.5 mM MgCl2, 1 mM dithiothreitol, 0.5 mM EGTA, 7.5 μg/mL phosphatidylserine, 1.6 μg/mL diacylglycerol, and 10 ng of PKC. […] Phosphorylation reactions were initiated by the addition of 10 μL of PKC from a stock solution (20 mM Tris-HCl at pH 7.5, 1 mM dithiothreitol, 1 mM EDTA, and 0.75 mg/mL bovine serum albumin) into 30 μL of assay buffer containing peptide substrate. Reactions were terminated after 5 min by spotting 25 μL aliquots onto phosphocellulose paper disks (2.1 cm in diameter). After 10 s, the disks were immersed in 10% glacial acetic acid and soaked with occasional stirring for at least 1 h. The acetic acid was decanted and the disks were collectively washed with four volumes of 0.5% H3PO4, 1 volume of water, followed by a final acetone rinse. The disks were air dried and then counted in a Beckman LS scintillation counter.

PKCγ (Homo sapiens) was tested, and the Km [1] was 30 ± 5 µM, the kcat [1] was 3.17 ± 0.667 s⁻¹ and the kcat/Km [1] was 105000 ± 28300 M⁻¹ s⁻¹. It also gave a Km [2] of 5.0 ± 1.0 µM, a kcat [2] of 3.5 ± 0.333 s⁻¹ and a kcat/Km [2] of 700000 ± 150000 M⁻¹ s⁻¹.
